Results from patent US20240228562A1, “NOVEL LIPOCALIN MUTEINS SPECIFIC FOR CONNECTIVE TISSUE GROWTH FACTOR (CTGF)” (PIERIS PHARMACEUTICALS GMBH, priority 2021, published 2024).

What was measured:
[1] = Thermal stability assessment by nanoDSC; assay type: physicochemical; conditions: 1 mg/mL in PBS, scan 25-100° C. at 1° C./min
Procedure, shortened: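 CTGF-specific lipocalin muteins at 1 mg/mL in PBS scanned from 25 to 100° C at 1° C/min by capillary nano-DSC. Where several transitions occur, the Tm of the major unfolding event is reported, along with onset temperature. Some muteins were expressed in E. coli, others in CHO cells.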

huWISP-2 = target: T1, huWISP-2 (Homo sapiens, UniProt O76076); assay: Specificity ELISA (CCN proteins), huWISP-2; assay type: binding; conditions: coated 1 μg/ml; assessed when human CTGF signal approached saturation
T1 sequence (O76076 24-250): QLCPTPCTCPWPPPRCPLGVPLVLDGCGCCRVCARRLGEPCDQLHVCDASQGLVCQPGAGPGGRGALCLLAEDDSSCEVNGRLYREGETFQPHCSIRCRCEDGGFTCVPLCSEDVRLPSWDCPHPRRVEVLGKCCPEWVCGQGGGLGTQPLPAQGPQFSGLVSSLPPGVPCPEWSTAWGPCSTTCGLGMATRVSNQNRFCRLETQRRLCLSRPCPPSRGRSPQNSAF
Experimental: (§1) Binding of muteins to closely related proteins of CTGF was tested by an ELISA assay. In detail, a 384-well plate suitable for fluorescence measurements (Greiner FLUOTRAC™ 600, black flat bottom, high-binding) was coated with 20 μl of human CTGF or the other members of the CCN protein family at a concentration of 1 μg/ml in PBS over night at 4° C. After washing with PBS with 0.05% Tween 20, wells were blocked with 100 μl blocking buffer containing 0.1% Tween 20 and 2% BSA (PBS-T/BSA) for 1 h at room temperature. 20 μl of serially diluted muteins starting at 1000 nM were incubated in PBS-T/BSA for 1 h at room temperature (RT).
(§2) The residual supernatants were discarded and 20 μl HRP-labeled anti-NGAL or anti-Strep-Tag antibody was added at a predetermined optimal concentration in PBS-T/BSA and incubated for 1 h at RT. After washing, 20 μl fluorogenic HRP substrate (QuantaBlu, Thermo) was added to each well, and the reaction was allowed to proceed for 2 to 60 minutes. The fluorescence intensity of every well on the plate was read using a fluorescence microplate reader (Tecan). When the signal for human CTGF approached saturation, the cross reactivity to the other proteins was assessed.

huWISP-1 = target: T2, huWISP-1 (Homo sapiens, UniProt O95388); assay: Specificity ELISA (CCN proteins), huWISP-1; assay type: binding; conditions: coated 1 μg/ml; assessed when human CTGF signal approached saturation
T2 sequence (O95388 23-367): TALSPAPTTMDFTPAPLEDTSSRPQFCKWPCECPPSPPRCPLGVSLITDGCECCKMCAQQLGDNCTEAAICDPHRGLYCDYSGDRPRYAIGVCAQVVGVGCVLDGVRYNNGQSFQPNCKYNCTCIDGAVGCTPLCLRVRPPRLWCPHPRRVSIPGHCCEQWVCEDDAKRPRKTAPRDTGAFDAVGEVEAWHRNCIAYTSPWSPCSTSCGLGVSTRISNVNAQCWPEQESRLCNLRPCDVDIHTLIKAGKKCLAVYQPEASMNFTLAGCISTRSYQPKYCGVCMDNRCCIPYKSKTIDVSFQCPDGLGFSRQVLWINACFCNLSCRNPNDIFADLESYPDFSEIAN
Experimental: as §1, §2

huWISP-3 = target: T3, huWISP-3 (Homo sapiens, UniProt O95389); assay: Specificity ELISA (CCN proteins), huWISP-3; assay type: binding; conditions: coated 1 μg/ml; assessed when human CTGF signal approached saturation
T3 sequence (O95389 24-354): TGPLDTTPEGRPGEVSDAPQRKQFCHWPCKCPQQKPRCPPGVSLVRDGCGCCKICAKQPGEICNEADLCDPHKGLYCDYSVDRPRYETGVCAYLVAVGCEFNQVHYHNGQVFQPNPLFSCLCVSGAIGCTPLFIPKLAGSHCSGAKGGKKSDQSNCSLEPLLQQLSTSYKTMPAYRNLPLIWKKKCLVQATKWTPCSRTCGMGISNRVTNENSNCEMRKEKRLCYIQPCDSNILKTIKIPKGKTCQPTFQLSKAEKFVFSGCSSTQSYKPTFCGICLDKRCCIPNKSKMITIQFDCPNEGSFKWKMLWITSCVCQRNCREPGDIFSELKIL
Experimental: as §1, §2

huNOV = target: T4, huNOV (Homo sapiens, UniProt P48745); assay: Specificity ELISA (CCN proteins), huNOV; assay type: binding; conditions: coated 1 μg/ml; assessed when human CTGF signal approached saturation
T4 sequence (P48745 32-357): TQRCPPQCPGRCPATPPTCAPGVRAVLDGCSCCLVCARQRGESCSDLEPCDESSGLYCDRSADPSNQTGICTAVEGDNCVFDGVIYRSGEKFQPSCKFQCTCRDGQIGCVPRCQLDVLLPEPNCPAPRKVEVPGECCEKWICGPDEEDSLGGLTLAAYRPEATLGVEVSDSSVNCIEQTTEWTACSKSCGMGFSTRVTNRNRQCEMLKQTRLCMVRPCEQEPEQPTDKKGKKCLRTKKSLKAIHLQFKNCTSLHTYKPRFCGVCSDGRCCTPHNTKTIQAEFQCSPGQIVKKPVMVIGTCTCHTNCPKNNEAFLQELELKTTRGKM
Experimental: as §1, §2

CTGF = target: T5, CTGF (Homo sapiens, UniProt P29279); assay: Specificity ELISA (CCN proteins), human CTGF; assay type: binding; conditions: coated 1 μg/ml, muteins from 1000 nM
T5 sequence (P29279 27-349): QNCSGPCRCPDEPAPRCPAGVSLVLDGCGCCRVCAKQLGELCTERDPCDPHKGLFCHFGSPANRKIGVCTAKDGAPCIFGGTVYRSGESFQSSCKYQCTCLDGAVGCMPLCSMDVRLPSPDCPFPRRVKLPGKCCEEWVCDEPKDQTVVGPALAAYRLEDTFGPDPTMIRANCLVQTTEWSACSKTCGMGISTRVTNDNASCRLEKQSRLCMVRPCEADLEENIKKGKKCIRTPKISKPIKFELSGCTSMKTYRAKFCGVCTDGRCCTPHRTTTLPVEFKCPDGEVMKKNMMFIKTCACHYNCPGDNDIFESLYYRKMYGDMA
Experimental: as §1, §2

huCYR61 = target: T6, huCYR61 (Homo sapiens, UniProt O00622); assay: Specificity ELISA (CCN proteins), huCYR61; assay type: binding; conditions: coated 1 μg/ml; assessed when human CTGF signal approached saturation
T6 sequence (O00622 25-381): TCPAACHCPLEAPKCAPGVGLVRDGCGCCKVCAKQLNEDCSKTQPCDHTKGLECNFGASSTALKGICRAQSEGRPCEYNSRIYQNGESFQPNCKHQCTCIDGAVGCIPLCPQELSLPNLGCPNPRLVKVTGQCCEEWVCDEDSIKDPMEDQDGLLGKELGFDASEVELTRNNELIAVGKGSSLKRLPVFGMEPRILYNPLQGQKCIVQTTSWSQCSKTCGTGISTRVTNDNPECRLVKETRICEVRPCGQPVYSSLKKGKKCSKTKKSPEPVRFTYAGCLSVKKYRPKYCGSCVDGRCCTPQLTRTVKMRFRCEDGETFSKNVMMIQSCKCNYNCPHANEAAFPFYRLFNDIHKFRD
Experimental: as §1, §2

B1: SEQ ID NO: 76: fusion protein comprising two CTGF-binding lipocalin muteins (protein)
chain: QDSTSDLIPAPPLSKVPLQQNFQDNQFQGKWYVVGLAGNAILREDKQPAKMFATIYELKEDKSYDVTSVRFEAKSCKYTIKTFVPGSQPGEFTAGYIKSAPGQTSTLVRVVSTNYNQHAMVFFKHVTQNREIFVITLYGRTKELTSELKENFIRFSKSLGLPENHIVFPVPIDQCIDGGGGGSGGGGSGGGGSQDSTSDLIPAPPLSKVPLQQNFQDNQFQGKWYVVGWAGNVKLREDKQPLKMSATIYELKEDKSYDVTEVVFEQKKCHYIIKTFVPGSQPGEFTAGDIKSPPGYTSSLVRVVSTNYNQHAMVFFKKVSQNREFFWITLYGRTKELTSELKENFIRFSKSLGLPENHIVFPVPIDQCIDG
modifications: fusion protein
[1]
  ONSET MELTING: 63 °C
[1]; major transition
  TM: 73 °C
huWISP-2
  ELISA binding to huWISP-2: No binding
huWISP-1
  ELISA binding to huWISP-1: No binding
huWISP-3
  ELISA binding to huWISP-3: No binding
huNOV
  ELISA binding to huNOV: No binding
CTGF
  ELISA binding to HUMAN CTGF: Binding
huCYR61
  ELISA binding to huCYR61: No binding
